Measurements taken from patent US6787341B2, “Pharmacological targeting of bacterial DNA ligase for treatment and prevention of bacterial infections” (priority 2001, dated 2004).

Columns and labels:
[1] = system: E. coli LigA; type: biochemical; conditions: for rate of ligase adenylation (kinetic pattern): 1 μM [32P-AMP]NAD+, 15-120 s; for ligase adenylation (ligase-AMP formation) with NAD+: qualitative
Description: (§1) FIG. 12A: Aliquots (5 μg) of wild-type (WT) E. coli ligase, N-terminal deletion mutants NΔ38 and NΔ78, and the full-length ligase proteins containing the indicated alanine mutations in domain Ia were analyzed by SDS-PAGE. A Coomassie blue-stained gel is shown. FIG. 12B: Ligase adenylation reaction mixtures (20 μl) containing 50 mM Tris-HCl (pH 7.5), 5 mM DTT, 5 mM MgCl2, 1 μM [α-^32P]NAD^+ and 8 pmol of WT ligase, NΔ38, NΔ78, or the indicated alanine mutants were incubated for 5 min at 37° C. The reaction products were resolved by SDS-PAGE and visualized by autoradiography. FIG. 12C: Nick joining reaction mixtures (20 μl) containing 50 mM Tris-HCl (pH 7.5), 10 mM (NH4)2SO4, 5 mM DTT, 5 mM MgCl2, 20 μM NAD^+, 1 pmol of ^32P-labeled nicked DNA, and increasing amounts of WT ligase or the indicated alanine mutants were incubated for 10 min at 22° C. The extents of ligation are plotted as a function of input protein.
FIG. 15A: Aliquots (5 μg) of wild-type (WT) E. coli ligase and proteins containing the indicated mutations in domain Ia were analyzed by SDS-PAGE. The Coomassie blue-stained gel is shown. The positions and sizes (in kDa) of marker proteins are indicated on the left. FIG. 15B: Ligase adenylation reaction mixtures (20 μl) containing 50 mM Tris-HCl (pH 7.5), 5 mM DTT, 5 mM MgCl2, 1 μM [α-^32P]NAD^+ and 8 pmol of WT ligase or the indicated mutants were incubated for 5 min at 37° C. The reaction products were resolved by SDS-PAGE and visualized by autoradiography.
Reaction mixtures containing (per 20 μl) 50 mM Tris-HCl (pH 7.5), 5 mM DTT, 5 mM MgCl2, 1 μM [^32P-AMP]NAD^+ and 8 pmol of ligase were incubated at 22° C. Aliquots (20 μl) were withdrawn at 15, 30, 60 and 120 s and then quenched immediately with SDS. The products were analyzed by SDS-PAGE. Formation of the ligase-[^32P]AMP adduct is plotted as a function of time.
The first step in DNA ligation involves formation of a covalent enzyme-adenylate intermediate.

[2] = system: E. coli LigA; type: biochemical; conditions: specific activity by protein titration under steady-state conditions, normalized to wild-type ligase
Description: as §1
To further probe the role of domain Ia in NAD^+ recognition and nucleotidyl transfer, single alanine substitutions were introduced at six positions in the Ia domain of E. coli LigA. The six mutated Eco ligase residues—Glu10, Tyr22, His23, Asp32, Tyr35, and Asp36—correspond to the six residues that were subjected to alanine scanning mutagenesis in AmEPV ligase (FIG. 11). […] The conserved positions are denoted by shaded boxes in FIG. 11. The Eco ligase mutants E10A, Y22A, H23A, D32A, Y35A, and D36A were produced in E. coli and purified by Ni-agarose chromatography in parallel with wild-type ligase (FIG. 12A).
To evaluate the roles of charge, hydrogen bonding potential, and steric constraints in the functions of the domain Ia residues implicated in the step 1 reaction with NAD^+, the effects of conservative substitutions were tested. Tyr22 and Tyr35 were replaced by Phe and Ser, His23 was changed to Tyr, and Asp32 and Asp36 were mutated to Glu and Asn. The recombinant mutant ligases were purified from soluble bacterial extracts by Ni-agarose chromatography (FIG. 15A). The specific activity of each mutant was determined under steady-state conditions by protein titration and normalized to the specific activity of wild-type ligase.

B1: D32N: E. coli LigA with Asp32 mutated to Asn (protein, UniProt P15042 1-671, looked up, variant D32N)
DNA ligase: MESIEQQLTELRTTLRHHEYLYHVMDAPEIPNAEYDRLMRELRELETKHPELITPDSPTQRVGAAPLAAFSQIRHEVPMLSLDNVFDEESFLAFNKRVQDRLKNNEKVTWCCELKLDGLAVSILYENGVLVSAATRGDGTTGEDITSNVRTIRAIPLKLHGENIPARLEVRGEVFLPQAGFEKINEDARRTGGKVFANPRNAAAGSLRQLDPRITAKRPLTFFCYGVGVLEGGELPDTHLGRLLQFKKWGLPVSDRVTLCESAEEVLAFYHKVEEDRPTLGFDIDGVVIKVNSLAQQEQLGFVARAPRWAVAFKFPAQEQMTFVRDVEFQVGRTGAITPVARLEPVHVAGVLVSNATLHNADEIERLGLRIGDKVVIRRAGDVIPQVVNVVLSERPEDTREVVFPTHCPVCGSDVERVEGEAVARCTGGLICGAQRKESLKHFVSRRAMDVDGMGDKIIDQLVEKEYVHTPADLFKLTAGKLTGLERMGPKSAQNVVNALEKAKETTFARFLYALGIREVGEATAAGLAAYFGTLEALEAASIEELQKVPDVGIVVASHVHNFFAEESNRNVISELLAEGVHWPAPIVINAEEIDSPFAGKTVVLTGSLSQMSRDDAKARLVELGAKVAGSVSKKTDLVIAGEAAGSKLAKAQELGIEVIDEAEMLRLLGS
**Q.** Which results are given for B1?
**A.** rate of ligase adenylation (kinetic pattern) [1]: faster than D32E; ligase adenylation (ligase-AMP formation) with NAD+ [1]: partially active; Nick Joining Activity (% of WT) [2]: 9 % of WT

B2: D36N: E. coli LigA with Asp36 mutated to Asn (protein, UniProt P15042 1-671, looked up, variant D36N)
DNA ligase: MESIEQQLTELRTTLRHHEYLYHVMDAPEIPDAEYNRLMRELRELETKHPELITPDSPTQRVGAAPLAAFSQIRHEVPMLSLDNVFDEESFLAFNKRVQDRLKNNEKVTWCCELKLDGLAVSILYENGVLVSAATRGDGTTGEDITSNVRTIRAIPLKLHGENIPARLEVRGEVFLPQAGFEKINEDARRTGGKVFANPRNAAAGSLRQLDPRITAKRPLTFFCYGVGVLEGGELPDTHLGRLLQFKKWGLPVSDRVTLCESAEEVLAFYHKVEEDRPTLGFDIDGVVIKVNSLAQQEQLGFVARAPRWAVAFKFPAQEQMTFVRDVEFQVGRTGAITPVARLEPVHVAGVLVSNATLHNADEIERLGLRIGDKVVIRRAGDVIPQVVNVVLSERPEDTREVVFPTHCPVCGSDVERVEGEAVARCTGGLICGAQRKESLKHFVSRRAMDVDGMGDKIIDQLVEKEYVHTPADLFKLTAGKLTGLERMGPKSAQNVVNALEKAKETTFARFLYALGIREVGEATAAGLAAYFGTLEALEAASIEELQKVPDVGIVVASHVHNFFAEESNRNVISELLAEGVHWPAPIVINAEEIDSPFAGKTVVLTGSLSQMSRDDAKARLVELGAKVAGSVSKKTDLVIAGEAAGSKLAKAQELGIEVIDEAEMLRLLGS
**Q.** Which results are given for B2?
**A.** rate of ligase adenylation (kinetic pattern) [1]: faster than D36E; ligase adenylation (ligase-AMP formation) with NAD+ [1]: partially active; Nick Joining Activity (% of WT) [2]: 12 % of WT

B3: D32E: E. coli LigA with Asp32 mutated to Glu (protein, UniProt P15042 1-671, looked up, variant D32E)
DNA ligase: MESIEQQLTELRTTLRHHEYLYHVMDAPEIPEAEYDRLMRELRELETKHPELITPDSPTQRVGAAPLAAFSQIRHEVPMLSLDNVFDEESFLAFNKRVQDRLKNNEKVTWCCELKLDGLAVSILYENGVLVSAATRGDGTTGEDITSNVRTIRAIPLKLHGENIPARLEVRGEVFLPQAGFEKINEDARRTGGKVFANPRNAAAGSLRQLDPRITAKRPLTFFCYGVGVLEGGELPDTHLGRLLQFKKWGLPVSDRVTLCESAEEVLAFYHKVEEDRPTLGFDIDGVVIKVNSLAQQEQLGFVARAPRWAVAFKFPAQEQMTFVRDVEFQVGRTGAITPVARLEPVHVAGVLVSNATLHNADEIERLGLRIGDKVVIRRAGDVIPQVVNVVLSERPEDTREVVFPTHCPVCGSDVERVEGEAVARCTGGLICGAQRKESLKHFVSRRAMDVDGMGDKIIDQLVEKEYVHTPADLFKLTAGKLTGLERMGPKSAQNVVNALEKAKETTFARFLYALGIREVGEATAAGLAAYFGTLEALEAASIEELQKVPDVGIVVASHVHNFFAEESNRNVISELLAEGVHWPAPIVINAEEIDSPFAGKTVVLTGSLSQMSRDDAKARLVELGAKVAGSVSKKTDLVIAGEAAGSKLAKAQELGIEVIDEAEMLRLLGS
**Q.** Which “ligase adenylation (ligase-AMP formation) with NAD+” value [1] does the source give for B3 here?
**A.** more severely affected

**Q.** What about the “Nick Joining Activity (% of WT)” value [2] of the same molecule?
**A.** 0.4 % of WT

B4: D36E: E. coli LigA with Asp36 mutated to Glu (protein, UniProt P15042 1-671, looked up, variant D36E)
DNA ligase: MESIEQQLTELRTTLRHHEYLYHVMDAPEIPDAEYERLMRELRELETKHPELITPDSPTQRVGAAPLAAFSQIRHEVPMLSLDNVFDEESFLAFNKRVQDRLKNNEKVTWCCELKLDGLAVSILYENGVLVSAATRGDGTTGEDITSNVRTIRAIPLKLHGENIPARLEVRGEVFLPQAGFEKINEDARRTGGKVFANPRNAAAGSLRQLDPRITAKRPLTFFCYGVGVLEGGELPDTHLGRLLQFKKWGLPVSDRVTLCESAEEVLAFYHKVEEDRPTLGFDIDGVVIKVNSLAQQEQLGFVARAPRWAVAFKFPAQEQMTFVRDVEFQVGRTGAITPVARLEPVHVAGVLVSNATLHNADEIERLGLRIGDKVVIRRAGDVIPQVVNVVLSERPEDTREVVFPTHCPVCGSDVERVEGEAVARCTGGLICGAQRKESLKHFVSRRAMDVDGMGDKIIDQLVEKEYVHTPADLFKLTAGKLTGLERMGPKSAQNVVNALEKAKETTFARFLYALGIREVGEATAAGLAAYFGTLEALEAASIEELQKVPDVGIVVASHVHNFFAEESNRNVISELLAEGVHWPAPIVINAEEIDSPFAGKTVVLTGSLSQMSRDDAKARLVELGAKVAGSVSKKTDLVIAGEAAGSKLAKAQELGIEVIDEAEMLRLLGS
**Q.** For B4, which “ligase adenylation (ligase-AMP formation) with NAD+” value [1] is on record?
**A.** more severely affected

**Q.** What about the “Nick Joining Activity (% of WT)” value [2] of the same molecule?
**A.** 4 % of WT
